The subject of series [1] is rabbit anti-mouse IgG antibody (Oryctolagus cuniculus). The series can be described thus: SPR. As to conditions: RNA with 5' A24 extension captured on biotin-dT24 SA chip; 25 C.
The subject of series [2] is rabbit anti-GST IgG + glutathione-S-transferase (mixture) (Oryctolagus cuniculus / Schistosoma japonicum). The series can be described thus: filter. As to conditions: 100 nM GST + 100 nM anti-GST IgG.
Series [3] has as its system rabbit anti-mouse IgG antibody (Oryctolagus cuniculus). Briefly: filter. As to conditions: 20 nM RNA, 100 nM protein, 5 mM MgCl2, RT.
For series [4], the system named is rabbit anti-GST antibody (IgG) (Oryctolagus cuniculus). Briefly: filter. As to conditions: 20 nM RNA, 100 nM protein.
The test system of a further series is mouse IgG (Mus musculus). Briefly: filter. As to conditions: specificity control, 100 nM protein.
The next series concerns goat IgG (Capra hircus). The series can be described thus: filter. As to conditions: specificity control, 100 nM protein.
In series [5] the target is glutathione-S-transferase (GST) (Schistosoma japonicum, UniProt P08515 P08515:2-218). The series can be described thus: filter; specificity control, 100 nM protein. As to conditions: tags: prepared in laboratory from GE vector; chain copies: 2; label: 32P (filter assay). As to the method:
(§1) The RNAs (20 nM) set forth in SEQ ID NOS: 1 to 5, and the materials (100 nM each) shown in “Material List” below, were incubated in a binding buffer, and then, their binding strength was measured in accordance with the methods described in “Radiolabeling” and “Binding Experiment” below.
(§2) The resulting mixture was introduced onto a filter (trade name: MF-membrane filter, manufactured by Millipore) by way of suctioning it with a suction device, and then, the filter was washed with a binding buffer that was 20 times the volume of the mixture. The radiation intensity of the filter obtained in this manner was measured with a Bio-Imaging Analyzer BAS-2500 (using, as an imaging plate, BAS-MS2040 manufactured by Fuji Film Co., Ltd.) manufactured by Fuji Film Co., Ltd. The radiation intensity was visualized with Image Reader (Fuji Film Co., Ltd.), and the obtained data were converted into numerical values with Image Gauge ver. 4.0 (Fuji Film Co., Ltd.).

The target in the next series is bovine serum albumin (Bos taurus, UniProt P02769 P02769:25-607). The series can be described thus: filter; specificity control, 100 nM protein; buffer only 0.3%. As to conditions: tags: SIGMA; label: 32P (filter assay). Here is the method:
as §1, §2

This passage reports Kd and binding signal results from patent publication US20100222559, “NUCLEIC ACID MOLECULE CAPABLE OF BINDING TO RABBIT-DERIVED lgG ANTIBODY” (published 2010).

Sequence of bovine serum albumin (P02769 25-607, one chain of several): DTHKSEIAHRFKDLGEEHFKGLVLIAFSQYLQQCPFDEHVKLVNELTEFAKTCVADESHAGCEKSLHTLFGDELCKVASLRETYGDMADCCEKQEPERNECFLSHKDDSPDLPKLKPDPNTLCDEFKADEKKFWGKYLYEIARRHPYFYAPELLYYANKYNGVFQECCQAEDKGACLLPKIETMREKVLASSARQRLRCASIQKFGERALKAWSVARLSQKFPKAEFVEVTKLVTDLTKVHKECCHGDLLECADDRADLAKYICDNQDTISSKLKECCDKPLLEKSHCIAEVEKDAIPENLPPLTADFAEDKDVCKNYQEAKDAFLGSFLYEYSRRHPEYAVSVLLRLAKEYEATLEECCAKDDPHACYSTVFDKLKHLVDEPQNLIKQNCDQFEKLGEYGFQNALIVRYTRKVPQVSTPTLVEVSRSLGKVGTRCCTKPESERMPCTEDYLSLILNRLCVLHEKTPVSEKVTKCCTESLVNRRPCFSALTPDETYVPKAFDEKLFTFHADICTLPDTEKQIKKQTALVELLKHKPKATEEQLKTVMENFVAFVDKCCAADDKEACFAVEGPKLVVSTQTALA
Sequence of glutathione-S-transferase (GST) (P08515 2-218, one chain of several): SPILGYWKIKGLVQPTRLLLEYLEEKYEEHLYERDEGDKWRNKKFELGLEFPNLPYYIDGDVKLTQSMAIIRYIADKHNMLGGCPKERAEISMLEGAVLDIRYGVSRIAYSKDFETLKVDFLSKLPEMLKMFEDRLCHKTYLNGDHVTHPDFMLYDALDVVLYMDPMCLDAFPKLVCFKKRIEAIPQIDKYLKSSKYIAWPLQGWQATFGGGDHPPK

The Kd is a measure of binding affinity in units of concentration. Higher therefore signals weaker binding. In turn, “GGGAGAAUUCCGACCAGAAGAAGUUCGAUACGCCGUGGGGUGACGUUGGCUGCCCUUUCCUCUCUCCUCCUUCUUCU [SEQ ID NO: 1 RNA aptamer]” displayed a Kd in series [1] of 0.013 nM. In addition, the binding signal worked out at 13.6 % bound in series [2]; 19.1 % bound in series [3] (50 mM HEPES pH 7.4, 150 mM NaCl); 19.1 % bound in series [4] (buffer only 0.2%); 0.6 % bound in the series on mouse IgG (Mus musculus); 0.8 % bound in the series on goat IgG (Capra hircus).

In turn, “GGGAGAAUUCCGACCAGAAGCAAAUUGCCGGGCCUUGGAAGCCAAGUCGCUUUCCUCUCUCCUCCUUCUUCU [SEQ ID NO: 3 RNA aptamer]” gave a Kd in series [1] of 118 nM. For the same molecule, the binding signal in series [2] was determined as 14.4 % bound; in series [3], 20.9 % bound; in series [4] (buffer only 0.3%) it was 20.9 % bound; in the series with mouse IgG (Mus musculus), 1.8 % bound; with goat IgG (Capra hircus), 1 % bound.

The molecule “GGGAGAAUUCCGACCAGAAGCGCAAGCCGGCCCUUGGAAGGCUAGUCGGUCUUUCCUCUCUCCUCCUUCUUCU [SEQ ID NO: 4 RNA aptamer]” registered a Kd in series [1] of 103 nM. For the same molecule, the binding signal in series [2] was 20.7 % bound; in series [3], 23.4 % bound; in series [4] (buffer only 0.3%), 23.4 % bound; with mouse IgG (Mus musculus), 0.5 % bound; in the series with goat IgG (Capra hircus) it was 0.3 % bound.

Regarding “GGGAGAAUUCCGACCAGAAGUUCGAUACGCCGUGGGGUGACGUUGGCUACCUUUCCUCUCUCCUCCUUCUUCU [SEQ ID NO: 5 RNA aptamer]”, in series [1], the Kd amounted to 0.0147 nM. Besides, the binding signal in series [2] was 48.8 % bound; in series [3], 58.1 % bound; in series [4] (buffer only 0.3%), 58.1 % bound; in the series on mouse IgG (Mus musculus), 0.5 % bound; with goat IgG (Capra hircus) it was 0.3 % bound.

With “GGGAGAAUUCCGACCAGAAGUUUUUAAACCGCGCCUUGGAAGCGUACGUUGGCCUUUCCUCUCUCCUCCUUCUUCU [SEQ ID NO: 2 RNA aptamer]”, the Kd in series [1] was determined as 51.5 nM. Further, the binding signal in series [2] was 14.2 % bound; in series [3] it was 24.6 % bound; in series [4] (buffer only 0.4%) it was 24.6 % bound; in the series with mouse IgG (Mus musculus), 0.5 % bound; in the series on goat IgG (Capra hircus), 0.7 % bound.

B1: SEQ ID NO: 1 RNA aptamer (ssRNA)
RNA: GGGAGAAUUCCGACCAGAAGAAGUUCGAUACGCCGUGGGGUGACGUUGGCUGCCCUUUCCUCUCUCCUCCUUCUUCU
In series [5], B1 returned a binding signal of 0.7 % bound.

B2: SEQ ID NO: 2 RNA aptamer (ssRNA)
RNA: GGGAGAAUUCCGACCAGAAGUUUUUAAACCGCGCCUUGGAAGCGUACGUUGGCCUUUCCUCUCUCCUCCUUCUUCU
For B2, the binding signal in series [5] came to 0.6 % bound.

B3: SEQ ID NO: 4 RNA aptamer (ssRNA)
RNA: GGGAGAAUUCCGACCAGAAGCGCAAGCCGGCCCUUGGAAGGCUAGUCGGUCUUUCCUCUCUCCUCCUUCUUCU
For the molecule B3, the binding signal (with bovine serum albumin; in series [5]) was 0.4 % bound in each case.

B4: SEQ ID NO: 5 RNA aptamer (ssRNA)
RNA: GGGAGAAUUCCGACCAGAAGUUCGAUACGCCGUGGGGUGACGUUGGCUACCUUUCCUCUCUCCUCCUUCUUCU
For B4, the binding signal with bovine serum albumin was found to be 0.9 % bound; in series [5], 0.6 % bound.

B5: SEQ ID NO: 3 RNA aptamer (ssRNA)
RNA: GGGAGAAUUCCGACCAGAAGCAAAUUGCCGGGCCUUGGAAGCCAAGUCGCUUUCCUCUCUCCUCCUUCUUCU
For the molecule B5, the binding signal with bovine serum albumin was found to be 1 % bound; in series [5], 0.6 % bound.
